Measured values as given in US20220218785A1 (ALPINE IMMUNE SCIENCES, published 2022).

How the values were obtained:
[1] = target: T1, CD28 on CHO cells expressing CD28 (UniProt P10747 19-220, limits assumed); assay: competition, flow cytometry: competitor labelled CD86 on CHO cells expressing CD28
T1 construct: whole, on cells

[2] = target: T1, CD28 on CHO cells expressing CD28; assay: flow cytometry on CHO cells expressing CD28, bound protein detected with anti-human IgG-PE, median fluorescence against [pM]
human CTLA-4 = target: T2, human CTLA-4 (human, UniProt P16410 36-223); assay: flow cytometry, transfected HEK293 cells
T2 construct: whole, on cells
Method: (§1) Binding was assessed substantially as described in Example 1 on transfected HEK293 cells generated to express the full-length surface ligands CD28, ICOS or CTLA-4 from human, cynomolgus monkey, rat or mouse. Transfection was carried out using a transient transfection system (Life Technologies, USA). As a control, binding to mock (non-transfected) cells also was assessed.

mouse CD28 = target: T3, mouse CD28 (mouse, UniProt P31041 20-218); assay: flow cytometry, transfected HEK293 cells
T3 construct: whole, on cells
Method: as §1

cynomolgus monkey CD28 = target: T4, cynomolgus monkey CD28 (cynomolgus monkey, UniProt Q0PDN3 19-220); assay: flow cytometry, transfected HEK293 cells
T4 construct: whole, on cells
Method: as §1

cynomolgus monkey CTLA-4 = target: T5, cynomolgus monkey CTLA-4 (cynomolgus monkey, UniProt G7PL88 36-223); assay: flow cytometry, transfected HEK293 cells
T5 construct: whole, on cells
Method: as §1

rat CTLA-4 = rat CTLA-4 (rat, UniProt Q62859 36-223); assay: flow cytometry, transfected HEK293 cells
Method: as §1

cynomolgus monkey ICOS = target: T6, cynomolgus monkey ICOS (cynomolgus monkey, UniProt A0A2K5TQR6 21-168); assay: flow cytometry, transfected HEK293 cells
T6 sequence: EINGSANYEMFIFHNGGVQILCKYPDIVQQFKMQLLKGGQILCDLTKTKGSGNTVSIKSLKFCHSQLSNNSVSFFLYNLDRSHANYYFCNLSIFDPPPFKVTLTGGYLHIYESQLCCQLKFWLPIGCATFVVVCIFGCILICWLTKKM
Method: as §1

rat ICOS = target: T7, rat ICOS (rat, UniProt Q9R1T7 21-200); assay: flow cytometry, transfected HEK293 cells
T7 construct: whole, on cells
T7 sequence (looked up): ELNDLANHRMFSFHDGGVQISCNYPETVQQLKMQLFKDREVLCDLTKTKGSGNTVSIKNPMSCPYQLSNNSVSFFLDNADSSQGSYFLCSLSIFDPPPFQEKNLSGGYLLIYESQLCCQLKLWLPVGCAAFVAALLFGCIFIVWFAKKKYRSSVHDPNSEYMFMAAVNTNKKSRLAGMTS
Method: as §1

rat CD28 = target: T8, rat CD28 (rat, UniProt P31042 20-218); assay: flow cytometry, transfected HEK293 cells
T8 construct: whole, on cells
Method: as §1

mouse CTLA-4 = target: T9, mouse CTLA-4 (mouse, UniProt P09793 36-223); assay: flow cytometry, transfected HEK293 cells
T9 construct: whole, on cells
Method: as §1

human CD28 = target: T10, human CD28 (human, UniProt P10747 19-220); assay: flow cytometry, transfected HEK293 cells
T10 construct: whole, on cells
Method: as §1

mouse ICOS = target: T11, mouse ICOS (mouse, UniProt Q9WVS0 21-200); assay: flow cytometry, transfected HEK293 cells
T11 construct: whole, on cells
T11 sequence (looked up): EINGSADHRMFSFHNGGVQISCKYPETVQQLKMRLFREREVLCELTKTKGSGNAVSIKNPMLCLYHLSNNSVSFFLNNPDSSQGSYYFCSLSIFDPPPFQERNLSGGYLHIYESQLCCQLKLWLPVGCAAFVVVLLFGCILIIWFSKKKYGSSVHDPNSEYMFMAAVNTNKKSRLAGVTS
Method: as §1

human ICOS = target: T12, human ICOS (human, UniProt Q9Y6W8 21-199); assay: flow cytometry, transfected HEK293 cells
T12 construct: whole, on cells
T12 sequence (looked up): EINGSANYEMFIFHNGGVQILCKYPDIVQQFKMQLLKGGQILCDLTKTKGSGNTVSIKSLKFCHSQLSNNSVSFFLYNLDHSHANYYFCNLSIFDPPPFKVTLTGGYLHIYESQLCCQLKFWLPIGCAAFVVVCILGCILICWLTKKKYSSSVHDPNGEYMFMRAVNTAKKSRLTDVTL
Method: as §1

[3] = target: T1, CD28 on CHO cells expressing CD28; assay: competition, flow cytometry: competitor CD80 on CHO cells expressing CD28
[4] = target: T13, ICOS on CHO cells expressing ICOS (UniProt Q9Y6W8 21-199, limits assumed); assay: competition, flow cytometry: competitor labelled ICOSL on CHO cells expressing ICOS
T13 construct: whole, on cells
T13 sequence (looked up): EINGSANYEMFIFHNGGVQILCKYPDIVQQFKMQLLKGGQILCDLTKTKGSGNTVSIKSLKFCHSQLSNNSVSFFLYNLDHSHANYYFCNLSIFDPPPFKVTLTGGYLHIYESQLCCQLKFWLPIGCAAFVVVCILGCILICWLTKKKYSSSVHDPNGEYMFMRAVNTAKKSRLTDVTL

[5] = target: T13, ICOS on CHO cells expressing ICOS; assay: flow cytometry on CHO cells expressing ICOS, bound protein detected with anti-human IgG-PE, median fluorescence against [pM]
[6] = target: CD28 receptor loaded onto anti-human capture sensor (ForteBio Octet AHC) (UniProt P10747 19-152); assay: ForteBio Octet BLI, receptor on AHC sensor
Method: (§2) Each titration was globally fit to calculate the association (kₒₙ) and dissociation (Kdis) of each protein. […] The dissociation constant (KD) was calculated and compared to wildtype to determine a fold improvement value (fold imp.).

[7] = target: CTLA-4 receptor loaded onto anti-human capture sensor (ForteBio Octet AHC) (UniProt P16410 37-162, limits assumed); assay: ForteBio Octet BLI, receptor on AHC sensor
Method: as §2

[8] = target: T14, ICOS receptor loaded onto anti-human capture sensor (ForteBio Octet AHC) (UniProt Q9Y6W8 21-141, limits assumed); assay: ForteBio Octet BLI, receptor on AHC sensor
T14 sequence (looked up): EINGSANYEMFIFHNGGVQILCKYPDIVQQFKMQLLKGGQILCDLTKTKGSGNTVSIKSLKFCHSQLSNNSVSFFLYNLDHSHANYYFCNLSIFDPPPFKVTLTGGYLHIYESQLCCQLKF
Method: as §2

[9] = target: T15, human ICOS, full-length, on transfected cells (human, UniProt Q9Y6W8 21-199); assay: flow cytometry on CHO cells expressing ICOS, anti-human IgG-PE
T15 construct: whole, on cells; also called ICOS tfxn
T15 sequence (looked up): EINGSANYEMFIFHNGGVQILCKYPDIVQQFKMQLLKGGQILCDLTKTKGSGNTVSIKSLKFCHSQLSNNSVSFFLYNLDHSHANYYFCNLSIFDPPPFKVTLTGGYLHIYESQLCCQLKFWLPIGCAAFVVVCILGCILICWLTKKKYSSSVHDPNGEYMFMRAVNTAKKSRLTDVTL

[10] = target: T16, rat ICOS, full-length, on transfected HEK293 cells (rat, UniProt Q9R1T7 21-200); assay: flow cytometry on transfected HEK293 cells
T16 construct: whole, on cells
T16 sequence (looked up): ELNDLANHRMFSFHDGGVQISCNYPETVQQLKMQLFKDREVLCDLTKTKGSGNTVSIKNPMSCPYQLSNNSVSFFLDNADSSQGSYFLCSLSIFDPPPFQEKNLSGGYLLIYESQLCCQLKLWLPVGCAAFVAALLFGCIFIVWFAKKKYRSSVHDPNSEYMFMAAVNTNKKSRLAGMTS
Method: (§3) Binding studies were carried out on transfected HEK293 cells generated to express the full-length mammalian (human) surface ligands, CD28, ICOS or CTLA-4, using a transient transfection system (Life Technologies, USA). As a control, binding to mock (non-transfected) cells also was assessed. For staining by flow cytometry, 200,000 cells of appropriate transient transfection or negative control (mock) were plated in 96 well round bottom plates, and, then incubated in staining buffer (PBS, phosphate buffered saline; 1% BSA, bovine serum albumin; and 0.1% sodium azide) for 20 minutes to block non-specific binding. Cells were resuspended in staining buffer containing 100 nM to 1 nM variant immunomodulatory protein in 50 μL. Mean Fluorescence Intensity (MFI) was calculated for each transfectant and negative parental line with Cell Quest Pro software (Becton Dickinson, USA) or a Hypercyt flow cytometer (Intellicyte, USA).
as §1

[11] = target: T17, human CTLA-4, full-length, on transfected cells (human, UniProt P16410 36-223); assay: flow cytometry on transfected HEK293 cells
T17 construct: whole, on cells; also called CTLA-4 tfxn
Method: as §3, §1

[12] = target: T18, mouse CTLA-4, full-length, on transfected HEK293 cells (mouse, UniProt P09793 36-223); assay: flow cytometry on transfected HEK293 cells
T18 construct: whole, on cells
Method: as §3, §1

[13] = target: T19, mouse CD28, full-length, on transfected HEK293 cells (mouse, UniProt P31041 20-218); assay: flow cytometry on transfected HEK293 cells
T19 construct: whole, on cells
Method: as §3, §1

[14] = target: T20, mouse ICOS, full-length, on transfected HEK293 cells (mouse, UniProt Q9WVS0 21-200); assay: flow cytometry on transfected HEK293 cells
T20 construct: whole, on cells
T20 sequence (looked up): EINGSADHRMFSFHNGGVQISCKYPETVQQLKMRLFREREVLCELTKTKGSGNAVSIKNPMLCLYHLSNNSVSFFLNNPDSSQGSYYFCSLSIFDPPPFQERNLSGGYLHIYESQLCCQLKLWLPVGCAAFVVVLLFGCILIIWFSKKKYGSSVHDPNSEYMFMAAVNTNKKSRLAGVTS
Method: as §3, §1

[15] = target: T21, rat CD28, full-length, on transfected HEK293 cells (rat, UniProt P31042 20-218); assay: flow cytometry on transfected HEK293 cells
T21 construct: whole, on cells
Method: as §3, §1

[16] = target: T22, human CD28, full-length, on transfected cells (human, UniProt P10747 19-220); assay: flow cytometry on CHO cells expressing CD28, anti-human IgG-PE
T22 construct: whole, on cells; also called CD28 tfxn

B1: variant ICOSL IgV-Fc (variant ICOSL IgV N52H/N57Y/Q100R, SEQ ID NO: 36, fused to an inert human IgG1 Fc, e.g. SEQ ID NO: 42) (Fc fusion)
chain: DTQEKEVRAMVGSDVELSCACPEGSRFDLNDVYVYWQTSESKTVVTYHIPQHSSLEYVDSRYRNRALMSPAGMLRGDFSLRLFNVTPQDEQKFHCLVLSRSLGFQEVLSVEVTLHVAANFSVEPKSSDKTHTCPPCPAPEAEGAPSVFLFPPKPKDTLMISRTPEVTCVVVDVSHEDPEVKFNWYVDGVEVHNAKTKPREEQYNSTYRVVSVLTVLHQDWLNGKEYKCKVSNKALPAPIEKTISKAKGQPREPQVYTLPPSRDELTKNQVSLTCLVKGFYPSDIAVEWESNGQPENNYKTTPPVLDSDGSFFLYSKLTVDKSRWQQGNVFSCSVMHEALHNHYTQKSLSLSPG
notes: also called variant ICOSL vIgD-Fc fusion molecule
- IC50 [1]: 0.7 nM
- EC50 (read off the curve) [2]: ~3 nM
- EC50 (human CTLA-4): 0.68 nM
- EC50 (mouse CD28): 1.15 nM
- EC50 (cynomolgus monkey CD28): 0.44 nM
- EC50 (cynomolgus monkey CTLA-4): 0.704 nM
- EC50 (rat CTLA-4): 0.793 nM
- EC50 (cynomolgus monkey ICOS): 0.579 nM
- EC50 (rat ICOS): 1.03 nM
- EC50 (rat CD28): 1.06 nM
- EC50 (mouse CTLA-4): 1.11 nM
- EC50 (human CD28): 0.648 nM
- EC50 (mouse ICOS): 1.43 nM
- EC50 (human ICOS): 0.633 nM
- IC50 [3]: 1 nM
- IC50 [4]: 4.3 nM
- EC50 (read off the curve) [5]: ~3 nM

B2: wildtype PD-L2 ED-Fc fusion molecule (Fc fusion, UniProt Q9BQ51 20-220, looked up)
chain: LFTVTVPKELYIIEHGSNVTLECNFDTGSHVNLGAITASLQKVENDTSPHRERATLLEEQLPLGKASFHIPQVQVRDEGQYQCIIIYGVAWDYKYLTLKVKASYRKINTHILKVPETDEVELTCQATGYPLAEVSWPNVSVPANTSHSRTPEGLYQVTSVLRLKPPPGRNFSCVFWNTHVRELTLASIDLQSQMEPRTHPT
notes: extracellular domain; Control protein in the ForteBio assays; also called PD-L2-Fc; not shown: Fc part and any linker are not described
- Response [6]: -0.04
- Response [7]: 0
- Response [8]: 0.03

B3: variant ICOSL IgV-Fc (N52H/N57Y/Q100R) (Fc fusion)
chain: DTQEKEVRAMVGSDVELSCACPEGSRFDLNDVYVYWQTSESKTVVTYHIPQHSSLEYVDSRYRNRALMSPAGMLRGDFSLRLFNVTPQDEQKFHCLVLSRSLGFQEVLSVEVTLHVAANFSVGGGGSGGGGSEPKSSDKTHTCPPCPAPEAEGAPSVFLFPPKPKDTLMISRTPEVTCVVVDVSHEDPEVKFNWYVDGVEVHNAKTKPREEQYNSTYRVVSVLTVLHQDWLNGKEYKCKVSNKALPAPIEKTISKAKGQPREPQVYTLPPSRDELTKNQVSLTCLVKGFYPSDIAVEWESNGQPENNYKTTPPVLDSDGSFFLYSKLTVDKSRWQQGNVFSCSVMHEALHNHYTQKSLSLSPG
notes: also called variant ICOSL vIgD-Fc fusion molecule; ICOS-IgV Fc (N52H/N57Y/Q100R)
- binding result [9]: binds
- binding result [10]: binds
- binding result [11]: binds
- binding result [12]: binds
- binding result [13]: binds
- binding result [14]: binds
- binding result [15]: binds
- binding result [16]: binds
